Each binder was assayed against T1, human PSMA (Prostate Specific Membrane Antigen, Glutamate Carboxypeptidase II) (human, UniProt Q04609 1-750) (assay: flow cytometry on LNCaP cells).
T1 construct: whole, on cells; the cell line is named under assay; also called FOLH1
Description: Briefly, 50,000 target cells were stained with a dilution series of purified UniAbs™ for 30 minutes at 4° C. Following incubation, the cells were washed twice with flow cytometry buffer (1×PBS, 1% BSA, 0.1% NaN₃) and stained with goat F(ab′)₂ anti-human IgG conjugated to R-phycoerythrin (PE) (Southern Biotech, cat. #2042-09) to detect cell-bound antibodies. After a 20-minute incubation at 4° C., the cells were washed twice with flow cytometry buffer and the mean fluorescence intensity (MFI) was measured by flow cytometry. The MFI of cells stained with secondary antibody alone were used for determination of background signal and binding of each antibody was converted to fold over background. Binding to cynomolgus PSMA positive cells was determined using the same protocol with the following modifications: the target cells were from Freestyle 293-F cells (ThermoFisher R79007) transiently transfected to express the extracellular domain of cynomolgus PSMA. In some experiments EC50 values were calculated using GraphPad Prism 7.
Column 1 indicates the clone ID of the HCAb. Column 2 indicates binding to LNCaP cells measured as fold over the background MFI signal.

T1 sequence (Q04609 whole entry): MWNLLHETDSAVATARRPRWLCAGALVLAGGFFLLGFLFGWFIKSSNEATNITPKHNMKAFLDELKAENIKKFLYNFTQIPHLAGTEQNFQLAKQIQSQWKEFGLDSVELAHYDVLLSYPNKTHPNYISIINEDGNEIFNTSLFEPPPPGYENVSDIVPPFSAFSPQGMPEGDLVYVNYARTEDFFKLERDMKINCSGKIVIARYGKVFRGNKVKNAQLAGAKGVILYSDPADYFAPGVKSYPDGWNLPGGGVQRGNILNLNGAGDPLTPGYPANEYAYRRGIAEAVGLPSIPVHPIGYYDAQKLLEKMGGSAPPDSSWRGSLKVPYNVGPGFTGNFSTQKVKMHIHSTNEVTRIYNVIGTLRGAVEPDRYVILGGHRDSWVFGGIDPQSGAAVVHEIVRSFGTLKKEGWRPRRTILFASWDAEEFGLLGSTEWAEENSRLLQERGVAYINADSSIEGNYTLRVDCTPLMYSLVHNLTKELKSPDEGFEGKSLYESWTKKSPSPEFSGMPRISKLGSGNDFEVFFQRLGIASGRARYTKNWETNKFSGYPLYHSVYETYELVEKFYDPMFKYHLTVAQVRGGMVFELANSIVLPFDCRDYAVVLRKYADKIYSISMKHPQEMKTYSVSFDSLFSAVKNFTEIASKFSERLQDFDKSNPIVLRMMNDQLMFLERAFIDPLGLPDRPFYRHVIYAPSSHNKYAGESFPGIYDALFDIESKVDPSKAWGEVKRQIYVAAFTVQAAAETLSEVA

Binder	fold over the background MFI signal [fold over background MFI]
anti-PSMA heavy-chain antibody clone ID 325748 (antibody, V domains shown, heavy chain-only antibody (UniAb/HCAb)) VH: QVQLVESGGGVVQPGRSLRLSCAASGFSFSSYGMHWVRQAPGKGLEGVAVIWYDGSNRYYADSVKGRFTISRDNSKNTLYLQMNSLRAEDTAVYYCAREPRIGYYYESSGYYSLDYRGQGTLVTVSS	193
anti-PSMA heavy-chain antibody clone ID 325836 (antibody, V domains shown, heavy chain-only antibody (UniAb/HCAb)) VH: QVQLVESGGGVVQPGRSLRLSCAASGFSFRSYGMHWVRQAPGKGLEWVAVIWYDGSNKYYADSVKGRFTISRDYSKNTLYLQMNSLRAEDTAVYYCAREPRIGYYYDSSGYDSLDYRGQGTLVTVSS	163
anti-PSMA heavy-chain antibody clone ID 345490 (antibody, V domains shown, heavy chain-only antibody (UniAb/HCAb)) VH: QVQLVESGGGLVKPGGSLRLSCAASGFSFSSYGMHWVRQAPGKGLEGVAVIWYDGSNRYYADSVKGRFTISRDNSKNTLYLQMNSLRAEDTAVYYCAREPRIGYYYESSGYYSLDYRGQGTLVTVSS	80
anti-PSMA heavy-chain antibody clone ID 345444 (antibody, V domains shown, heavy chain-only antibody (UniAb/HCAb)) VH: QVQLVESGGGVVQPGRSLRLSCAASGFTFSSYGMHWVRQAPGKGLEGVAVIWYDGSNRYYADSVKGRFTISRDNSKNTLYLQMNSLRAEDTAVYYCAREPRIGYYYESSGYYSLDYRGQGTLVTVSS	23
anti-PSMA heavy-chain antibody clone ID 345421 (antibody, V domains shown, heavy chain-only antibody (UniAb/HCAb)) VH: QVQLVESVGGVVQPGRSLRLSCAASGFSFSSYGMHWVRQAPGKGLEGVAVIWYDGSNRYYADSVKGRFTISRDNSKNTLYLQMNSLRAEDTAVYYCAREPRIGYYYESSGYYSLDYRGQGTLVTVSS	22
anti-PSMA heavy-chain antibody clone ID 326084 (antibody, V domains shown, heavy chain-only antibody (UniAb/HCAb)) VH: QVQLVESGGGVVQPGRSLRLSCAASGFSFSSYGMHWVRQAPGKGLEGVAVIWYDGSNRYYADSVKGRFTISRDNSKNTLYLQMNSLRAEDTAVYYCAREPRIGYYYDSSGYYSLDYRGQGTLVTVSS	125
anti-PSMA heavy-chain antibody clone ID 345497 (antibody, V domains shown, heavy chain-only antibody (UniAb/HCAb); also called HCAb 345497) VH: QVQLVESGGGVVQPGRSLRLSCAASGFSFSRYGMHWVRQAPGKGLEGVAVIWYDGSNRYYADSVKGRFTISRDNSKNTLYLQMNSLRAEDTAVYYCAREPRIGYYYESSGYYSLDYRGQGTLVTVSS	112
anti-PSMA heavy-chain antibody clone ID 345447 (antibody, V domains shown, heavy chain-only antibody (UniAb/HCAb)) VH: QVQLVESGGGVVQPGRSLRLSCAASGFSFSSYGMHWVRQAPGKGLEGVAVISYDGSNRYYADSVKGRFTISRDNSKNTLYLQMNSLRAEDTAVYYCAREPRIGYYYESSGYYSLDYRGQGTLVTVSS	14
anti-PSMA heavy-chain antibody clone ID 345480 (antibody, V domains shown, heavy chain-only antibody (UniAb/HCAb)) VH: QVQLVESGGGVVQPGRSLRLSCAASGFSFSSYGMHWVRQAPGKGLEWVAVIWYDGSNRYYADSVKGRFTISRDNSKNTLYLQMNSLRAEDTAVYYCAREPRIGYYYESSGYYSLDYRGQGTLVTVSS	47
anti-PSMA heavy-chain antibody clone ID 326027 (antibody, V domains shown, heavy chain-only antibody (UniAb/HCAb)) VH: QVQLVESGGGVVQPGRSLRLSCAASGFSFRSYGMHWVRQAPGKGLEWVAVIWYDGSNKYYADSVKGRFTISRDNSKNTLYLQMNSLRAEDTAVYYCAREPRIGYYYDSSGYDSLDYRGQGTLVTVSS	138
anti-PSMA heavy-chain antibody clone ID 345438 (antibody, V domains shown, heavy chain-only antibody (UniAb/HCAb)) VH: QVQLVESGGGVVQPGRSLRLSCAASGFSFSSYGMHWVRQAPGKGPEWVAVIWYDGSNKYYADSVKGRFTISRDNSKNTLYLQMNSLRAEDTAVYYCAREPRIGYYYESSGYYSLDYRGQGTLVTVSS	13
anti-PSMA heavy-chain antibody clone ID 325742 (antibody, V domains shown, heavy chain-only antibody (UniAb/HCAb)) VH: QVQLVESGGGVVQPGRSLRLSCAASGFSFSSYGMHWVRQAPGKGLEWVAVIWYDGSNKYYADSVKGRFTISRDYSKNTLYLQMNSLRAEDTAVYYCAREPRIGYYYESSGYDSLDYRGQGTLVTVSS	200
anti-PSMA heavy-chain antibody clone ID 345443 (antibody, V domains shown, heavy chain-only antibody (UniAb/HCAb)) VH: QVQLVESGGGVVQPGRSLRLSCAASGFSFSSYGMHWVRQAPGKGLEGVAVIWYDGSNRYYADSVKGRFTISRDNSKNTLFLQMNSLRAEDTAVYYCAREPRIGYYYESSGYYSLDYRGQGTLVTVSS	84
anti-PSMA heavy-chain antibody clone ID 326116 (antibody, V domains shown, heavy chain-only antibody (UniAb/HCAb)) VH: QVQLVESGGGVVQPGRSLRLSCAASGFSFSRYGMHWVRQAPGKGLEGVAVISYDGSNKYYADSVKGRFTISRDYSKNTLYLQMNSLRAEDTAVYYCAREPRIGYYYDSSGYDSLDYRGQGTLVTVSS	38
anti-PSMA heavy-chain antibody clone ID 325867 (antibody, V domains shown, heavy chain-only antibody (UniAb/HCAb)) VH: QVQLVESGGGVVQPGRSLRLSCAASGFSFRSYGMHWVRQAPGKGLEWVAVIWYDGSNKYYADSVKGRFTISRDYSKNTLYLQMNSLRAEDTAVYYCAREPRIGYYYESSGYDSLDYRGQGTLVTVSS	210
anti-PSMA heavy-chain antibody clone ID 346172 (antibody, V domains shown, heavy chain-only antibody (UniAb/HCAb)) VH: QLQLQESGPGLVKPSETLSLTCTVSGGSISSSSYYWGWIRQPPGKGLEWIGSIDYSGYTYYNPSLKSRVTISVDTSKNQFSLKLSSVTAADTAVYNCARHKAATADFDYRGQGTLVTVSS	216
anti-PSMA heavy-chain antibody clone ID 325920 (antibody, V domains shown, heavy chain-only antibody (UniAb/HCAb)) VH: QLQLQESGPGLVKPSETLSLTCTVSGGSISSSSYYWGWIRQPPGKGLEWIGSIDYSGYTYYNPSLQSRVTISVDTSKNQFSLKLSSVTAADTAVYNCARHKAATADFDYRGQGTLVTVSS	282

Further lines, results first:

fold over the background MFI signal [fold over background MFI]	Binder
71	anti-PSMA heavy-chain antibody clone ID 345485 (antibody, V domains shown, heavy chain-only antibody (UniAb/HCAb)) VH: QVQLVESGGGVVQPGRSLRLSCAASGFSFRSYGMHWVRQAPGKGLEWVAVIWYDGSNKYYADSVKGRFTISRDNSKNTMYLQMNSLRAEDTAVYYCAREPRIGYYYESSGYYSLDYRGQGTLVTVSS
80	anti-PSMA heavy-chain antibody clone ID 345482 (antibody, V domains shown, heavy chain-only antibody (UniAb/HCAb)) VH: QVQLVESGGGVVQPGRSLRLSCAASGFSFSSYGMHWVRQAPGKGLEGVAVIWYDGSNRYYADSVKGRFTISRDSSKNTLYLQMNSLRAEDTAVYYCAREPRIGYYYESSGYYSLDYRGQGTLVTVSS
129	anti-PSMA heavy-chain antibody clone ID 326087 (antibody, V domains shown, heavy chain-only antibody (UniAb/HCAb)) VH: QVQLVESGGGVVQPGRSLRLSCAASGFIFRSYGMHWVRQAPGKGPEWVAVIWYDGSNKYYADSVKGRFTISRDNSKNTLYLQMNSLRAEDTAVYYCAREPRIGYYYDSSGYDSLDYRGQGTLVTVSS
169	anti-PSMA heavy-chain antibody clone ID 325940 (antibody, V domains shown, heavy chain-only antibody (UniAb/HCAb)) VH: QVQLVESGGGVVQPGRSLRLSCAASGFIFRSYGMHWVRQAPGKGPEWVAVIWYDGSNKYYADSVKGRFTISRDNSKNTLYLQMNSLRAEDTAVYYCAREPRIGYYYESSGYYSLDYRGQGTLVTVSS
87	anti-PSMA heavy-chain antibody clone ID 345436 (antibody, V domains shown, heavy chain-only antibody (UniAb/HCAb)) VH: QVQLVESGGGVVQPGRSLRLSCAASGFSFSRYGMHWVRQAPGKGLEGVAVIWYDGSNKYYADSVKGRFTISRDNSKNTLYLQMNSLRAEDTAVYYCAREPRIGYYYESSGYYSLDYRGQGTLVTVSS
109	anti-PSMA heavy-chain antibody clone ID 326029 (antibody, V domains shown, heavy chain-only antibody (UniAb/HCAb)) VH: QVQLVESGGGVVQPGRSLRLSCAASGFSFSRYGMHWVRQAPGKGLEWVAVISYDGSNKYYADSVKGRFTISRDNSKNTLYLQMNSLRAEDTAVYYCAREPRVGYYYETSGYYSLDYRGQGTLVTVSS
68	anti-PSMA heavy-chain antibody clone ID 345463 (antibody, V domains shown, heavy chain-only antibody (UniAb/HCAb)) VH: QVQLVESGGGVVQPGRSLRLSCAASGFIFRSYGMHWVRQAPGKGPEWVAVIWYDGSNKYYADSVKGRFTISRDNSKNTLYLQMNSLRAEDTAVYYCAREPRIGYYYESSGYYSLDYRGQGTLVTVSS
102	anti-PSMA heavy-chain antibody clone ID 345461 (antibody, V domains shown, heavy chain-only antibody (UniAb/HCAb)) VH: QVQLVESGGGVVQPGRSLRLSCAASGFSFTSYGMHWVRQAPGKGLEGVAVIWYDGSNRYYADSVKGRFTISRDNSKNTLYLQMNSLRAEDTAVYYCAREPRIGYYYESSGYYSLDYRGQGTLVTVSS
101	anti-PSMA heavy-chain antibody clone ID 345493 (antibody, V domains shown, heavy chain-only antibody (UniAb/HCAb)) VH: QVQLVESGGGVVQPGRSLRLSCAASGFSFSRYGMHWVRQAPGKGLEWVAVIWYDGSNRYYADSVKGRFTISRDNSKNTLYLQMNSLRAEDTAVYYCAREPRIGYYYESSGYYSLDYRGQGTLVTVSS
117	anti-PSMA heavy-chain antibody clone ID 326028 (antibody, V domains shown, heavy chain-only antibody (UniAb/HCAb)) VH: QVQLVESGGGVVQPGRSLRLSCAASGFSFRSYGMHWVRQAPGKGLEWVAVISYDGSNKYYADSVKGRFTISRDYSKNTLYLQMNSLRAEDTAVYYCAREPRIGYYYDSSGYDSLDYRGQGTLVTVSS
243	anti-PSMA heavy-chain antibody clone ID 346165 (antibody, V domains shown, heavy chain-only antibody (UniAb/HCAb)) VH: QLQLQESGPGLVKPSETLSLTCTVSGGSISSSSYYWGWIRQPPGKGLEWIGSVDYSGYTYYNPSLQSRVTISVDTSKNQFSLKLSSVTAADTAVYNCARHKAATADFDYRGQGTLVTVSS
264	anti-PSMA heavy-chain antibody clone ID 346181 (antibody, V domains shown, heavy chain-only antibody (UniAb/HCAb)) VH: QLQLQESGPGLVKPSETLSLTCTVSGGSISSSNYFWGWIRQSPGKGLEWIGSIDYSGYTYYNPSLKSRVTISVDTSKNQFSLKLSSVTAADTAVYNCARHKAATADFDYRGQGTLVTVSS
25	anti-PSMA heavy-chain antibody clone ID 326109 (antibody, V domains shown, heavy chain-only antibody (UniAb/HCAb)) VH: QLQLQESGPGLVKPSETLSLTCTVSGGSISSNSYYWGWIRQSPGKGLEWLGSIYDSGSTHYNPSLKSRVIISGDTSKNQFSLKLSSVTAADTAVYYCARHKAATADFDYRGQGTLVTVSS

From patent US20250066476A1 (TENEOONE, published 2025)
